Measured values from patent publication US20250049939A1, “NOVEL FLT3 ANTIBODIES AND ANTIBODY-DRUG-CONJUGATES BASED THEREON, THERAPEUTIC METHODS AND USES THEREOF IN COMBINATION WITH TYROSINE KINASE INHIBITORS” (TUBULIS GmbH, priority 2021, published 2025).

Target: human CD64 (high affinity Fc receptor, FCGR1) on cells (human) (UniProt P12314)
Experiment: cell-based or functional assay

Sequence of human CD64 (high affinity Fc receptor, FCGR1) on cells (human) (P12314 16-374): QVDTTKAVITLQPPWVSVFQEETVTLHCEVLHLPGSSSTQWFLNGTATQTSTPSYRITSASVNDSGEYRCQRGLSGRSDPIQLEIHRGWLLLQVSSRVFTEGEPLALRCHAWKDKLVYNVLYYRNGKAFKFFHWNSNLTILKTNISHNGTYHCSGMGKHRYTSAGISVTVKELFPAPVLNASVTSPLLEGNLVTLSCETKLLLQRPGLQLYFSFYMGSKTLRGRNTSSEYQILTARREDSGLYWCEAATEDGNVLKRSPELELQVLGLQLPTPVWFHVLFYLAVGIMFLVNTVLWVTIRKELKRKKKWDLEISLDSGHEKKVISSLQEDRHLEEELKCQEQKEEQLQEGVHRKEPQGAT

**Q.** Which results are given for “IgG1-ADC (palivizumab conjugated to MMAF) (antibody)”?
**A.** IC50 of cytotoxicity in Ba/F3-pMIY-CD64 cells: 31.8 ng/ml; IC50 of cytotoxicity in Ba/F3 cells expressing both FLT3 and CD64: 0.0783 µg/mL; IC50 of cytotoxicity in CD64 positive leukemia and lymphoma cell lines: 0.0128 to 2 µg/mL
